The numbers were not newly measured in PMC8896763, which cites them from elsewhere.

Some targets named below: CD58 (Homo sapiens) (UniProt P19256); CD48 (Rattus norvegicus) (UniProt P10252); CD80 (UniProt P33681); PSGL-1 (Homo sapiens) (UniProt Q14242).
Sequence of UniProt P19256 (P19256 29-215): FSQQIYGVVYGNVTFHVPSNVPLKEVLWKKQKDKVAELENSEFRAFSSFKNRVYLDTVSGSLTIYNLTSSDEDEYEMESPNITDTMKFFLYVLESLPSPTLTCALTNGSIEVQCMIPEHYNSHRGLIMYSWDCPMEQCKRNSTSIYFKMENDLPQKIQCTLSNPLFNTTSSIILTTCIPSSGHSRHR
Sequence of UniProt P10252 (P10252 23-217): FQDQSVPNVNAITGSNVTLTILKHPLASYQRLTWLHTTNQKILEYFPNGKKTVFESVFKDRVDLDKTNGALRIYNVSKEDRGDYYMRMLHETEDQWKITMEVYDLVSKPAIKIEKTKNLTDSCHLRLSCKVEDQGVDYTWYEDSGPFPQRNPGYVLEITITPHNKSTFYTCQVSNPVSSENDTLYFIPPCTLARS
Sequence of UniProt Q14242 (Q14242 42-320): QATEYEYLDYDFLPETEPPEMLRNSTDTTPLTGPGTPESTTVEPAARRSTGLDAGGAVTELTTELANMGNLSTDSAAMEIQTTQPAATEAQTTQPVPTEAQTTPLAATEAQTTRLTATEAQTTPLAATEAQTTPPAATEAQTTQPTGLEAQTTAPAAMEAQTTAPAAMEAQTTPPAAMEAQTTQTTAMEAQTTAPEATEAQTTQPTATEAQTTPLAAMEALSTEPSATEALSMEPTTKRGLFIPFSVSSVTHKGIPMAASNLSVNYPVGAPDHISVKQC
Sequence of UniProt P33681 (P33681 35-242): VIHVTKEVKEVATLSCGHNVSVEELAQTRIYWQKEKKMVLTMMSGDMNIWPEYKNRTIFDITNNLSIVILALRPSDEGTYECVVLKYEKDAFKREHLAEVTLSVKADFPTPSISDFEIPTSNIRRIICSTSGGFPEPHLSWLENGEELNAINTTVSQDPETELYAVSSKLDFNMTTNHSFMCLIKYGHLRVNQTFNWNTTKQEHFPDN

What is called Kd is the free concentration of one partner at which half of the binding sites on the other are occupied at equilibrium, for simple one-to-one binding. Consider CD2 (from UniProt P06729), for which the Kd with CD58 (Homo sapiens) was 10 µM.
On to CD2 (from UniProt P08921), for which the Kd with CD48 (Rattus norvegicus) is 60 µM.
In the case of CD28 (from UniProt P10747), the Kd with CD80 is 2 µM.
Consider P-selectin (from UniProt P16109), for which the Kd with PSGL-1 (Homo sapiens) is 0.3 µM.
